Substrate in the data set: BHET
The following applies: 120 h.

B1: unnamed (protein)
chain: MTEKDTSMKFFQATLSLTVGVLLTTALSGTALAESAYLRGPAPTVASVEAPAGPYQVTSQVMKDPVGYKAGTVFYPSDAQGQSFGLIVVAPGFIETQSWNAWWAQYLASHGFVVINIDTQSTLEFPAARAKEELAALNDVVRRSTQPDSPLFGLVDASRQGAMGHSMGGGATLEIAKANPYLKAIVPMAPFQTSGTDYSKLTVPTLIMACKGDVVATASSHSEPIYKSLSPSLDKAYLEMQGGAGHPCTTSVGTSDKVRTLAGKYGLAWFKRFLDEDTRYSQFLCGIPHGLDMFGKVISGYKGNCPY
In the case of B1, the plate clearing result is “not clears the plate”.

B2: unnamed (protein)
chain: MKTSRHSTATTTLTRLARLALAAAAVLLSAAAQAQVVIFQENFNSGLGQFTASGTVSTSSGGARMQGCGGGTDGTITSSPISTVGFTNLKLSFDRTTTGLDSGEAGIAEYSVNGSTWTVIESTQSSSGRVTIALPAAAAGQAALRLRFRVNASLSSETYTVDNIPLAGTPGGNSAPGPGGTPYQRGPDPTAASLEASDGPFAVATLTVSSASGYGAGTIYYPTNTEGPFAAIAVVPGYTGTQSSIQWLGPRLASHGFVVITIDTNSLSDNPESRATQLMAALNQLVTLSNTSGHPIYGKVDSNRLGVMGHSMGGGGTLVAARDNPTLKAAIPLAPWYSSTNFSGVTVPTLVVACQSDTVAPVSSHALPMYNSIPSSTDKAYLEISGGDHLCVTTGNGNKAIQGKYVVAWMKRFLDNDTRYSPFLCGAPHQADLSGSAVSEYRDTCPY
In the case of B2, the plate clearing result is listed as “clears the plate (z > 3 vs empty vector)”.

B3: unnamed (protein)
chain: MDWPRPRCVRRRTSNGQRRSTTCRGDIPMSTRVTHSRLTLIRCLALAAPLMCLGLAQAQTSPPTSESLNARSGPLSIASENVSRLAARGFGGGTIYYPRTSGRYGLIAISPGFTATESSVAWIGEKLASHGFVAIVINTNSTLDQPSSRARQLRAALDHAISSASSTVRNRIDPSRQAVAGHSMGGGGSLIAAEDDPSLKAAFPLTPWNTSSSFTRVRVPSMIFGADGDTIAPVAVHARPFYGSIPRTTSKAYAELQSATHFAPNVRNEAIGRYGVAWMKRFMDGDTRYSTFLCGSEHDRYNTSLRFDQFQSNCPY
Regarding B3, the plate clearing entry is listed as “not clears the plate”.

B4: unnamed (protein)
chain: MKTLFKAAVLCGAMLTSLGVLAQANPYQKGPDPTVSNLEAARGSFAVSSTSISGLSATGFGGGSLHYPTAAGSYGLIAVAPPYLAQSSSIAWLGPRLASHGFVVVMIDVNSTLDFPESRSRQQLAAIDYAIAQSARTTSPIYRKVDTTRRGVSGHSMGGGASILTARNAPANIKGAFPLTPWSSDKNFSSLQVPTGYLACESDTVAANADHSLNFYNRMPASTPKGYYELRGESHFCPQSTANNPVIGKYLVAWMKRFVDNDTRFSPFLSGALPNADLSSRRFSALRTSGL
For B4, the plate clearing entry was “not clears the plate”.

B5: unnamed (protein)
chain: MKHFHRFGATLFRGAAIAGPLALLGVAHAQTTAPTSASLNATAGPLSIASSTVSSLAANGFGGGTIYYPTASGRFGVVAISPGFTASQSTIEWLGRRMASHGFVVITIDTITTLDYPDSRATQLRAALDHVINRASTTVRNKVDPARRAVAGHSMGGGGSLIAAQADSTLKAAYPMTPWNITENFSRVRVPTMIIGADGDTIAPVTSHARPFYASIPNTTFKAYGELNNATHFAPNVTNTPIGRYGVAWMKRFVDGDTRYSTFLCGAEQNRYNTSLVFDQYRSNCPY
As for B5, the plate clearing entry is reported as “not clears the plate”.

B6: unnamed (protein)
chain: MFGCYGCTDGSIVSAPISTVGYSDIKVTFTRSSSGLDLGEAGIAEWSANGSTYTVIESSRSVSGAATFNLPSGAAGQSGLRVRFRVDASLSSEYYTVDTITVEGTSSGGGGGGGVQIGPDPTTSTLESSSGGSFSVQYQSVSSLSTSGFDGGRLYYPTTSGQYGGIVLCPGYTASSSSLAWWGERLASWGFIVLIIDTNSAYDQPSSRATQLMAGVAWLKARNNDSGHALYGKLRESDIAVGGHSMGGGGTLIALRDNPSLKTGFAMTPWNSSTNFSGITQPTFILGCESDSVAPNSSHSIPFYNSISSSVKKVYAEVDGASHFCPNSSDAKMGKYGIAWYKRFLDGDTRFQPWLCPSATGGN
B6: the plate clearing entry is “not clears the plate”.

B7: unnamed (protein)
chain: MSLDVWEWSTEAGGDIRQWDYLGADNQKWRINDLGNGYHSIISAYNGLSLDVYEWSTSNGGDIRQWDYTGAENQQWAFQPTGTSGGGSTGGGSTSCVSSSDITSSKLSATGASGPYSVRSKGVSNWSASGFGGGTIWYPTNASACGRMPGIAVVPGFLSYESSIRWWGARLASWGYVVITIDTNSIYDQPPSRGRQLSDALDHIIYDSTTRNMVDPNRLGAIGWSMGGGGSIWLANNRPEVKAIIPQAPWYLTTTSTSKPAFYIACESDTVAPTYSHVDDFYRYSTGPKMKIEINNGSHWCANSGNGNEGTLGKAGISWMKRYINGDTRFNQFLCGQENYGSRYDVSDYDYASCP
For B7, the plate clearing entry is “not clears the plate”.
